Measured values taken from publication PMC12813162.

Biological target: phospholipase B D2
Test: IP-MS (UBQLN2 immunoprecipitation, mass spectrometry)
Conditions: iMNs; read off a plot

Question: “Ubiquilin-2, wild type (from UniProt Q9UHD9) P497H; P506T; P509S; P525S” was tested. Which other: Student's T-test Difference did it give?
Answer: 0.47
